Biological target: All antibodies according to the invention, which were tested (Example 4)

Row | Protein | cleavage of fluorogenic peptide OmniMMP RED by MMP catalytic domain, antibody at 100 nM
1 | recombinant catalytic domain of human MMP1 (protein) FVLTEGNPRWEQTHLTYRIENYTPDLPRADVDHAIEKAFQLWSNVTPLTFTKVSEGQADIMISFVRGDHRDNSPFDGPGGNLAHAFQPGPGIGGDAHFDEDERWTNNFREYNLHRVAAHELGHSLGLSHSTDIGALMYPSYTFSGDVQLAQDDIDGIQAIYGRSQNPVQP | had no significant effect on the catalytic activity of the eight other human MMPs tested
2 | recombinant catalytic domain of human MMP12 (protein) GPVWRKHYITYRINNYTPDMNREDVDYAIRKAFQVWSNVTPLKFSKINTGMADILVVFARGAHGDFHAFDGKGGILAHAFGPGSGIGGDAHFDEDEFWTTHSGGTNLFLTAVHEIGHSLGLGHSSDPKAVMFPTYKYVDINTFRLSADDIRGIQSLYG | had no significant effect on the catalytic activity of the eight other human MMPs tested

Reference: patent US20170233495
